T1: ARID4B TD151 (Homo sapiens, UniProt Q4LE39 1-151)
T1 sequence: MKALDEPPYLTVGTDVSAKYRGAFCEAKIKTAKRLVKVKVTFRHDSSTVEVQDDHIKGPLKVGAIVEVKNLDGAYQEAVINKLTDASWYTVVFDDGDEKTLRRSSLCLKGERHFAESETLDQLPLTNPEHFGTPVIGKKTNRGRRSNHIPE

T2: ARID4B TD121 (Homo sapiens, UniProt Q4LE39 1-121)
T2 sequence: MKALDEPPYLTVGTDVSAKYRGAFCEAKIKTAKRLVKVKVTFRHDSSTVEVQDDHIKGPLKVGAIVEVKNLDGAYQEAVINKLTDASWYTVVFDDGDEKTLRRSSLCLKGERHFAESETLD

T3: ARID4A TD151 (Homo sapiens, UniProt P29374 4-151)
T3 sequence: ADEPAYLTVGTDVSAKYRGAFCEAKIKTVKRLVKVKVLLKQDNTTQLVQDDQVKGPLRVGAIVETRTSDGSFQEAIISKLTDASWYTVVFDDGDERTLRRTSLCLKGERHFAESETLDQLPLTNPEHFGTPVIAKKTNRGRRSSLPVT

B1: dsDNA2 (dsDNA)
DNA 1: CTGTCAAAGGTG
DNA 2: TCACCTTTGACA
B2: dsDNA1 (dsDNA)
DNA 1: CTCAGGTCAAAGGTCACG
DNA 2: TCGTGACCTTTGACCTGA

How the values were obtained:
ARID4B TD151 [1] = target: T1, ARID4B TD151; assay: NMR titration; n fixed 2; 50 mM Tris-HCl pH 7.6, 50 mM NaCl (buffer A); ITC 25 C; EMSA 4 C, 12 uM DNA, 8% native gel in TBE; NMR titration by 1H-15N HSQC (temperature not stated for titration; buffer A also defined elsewhere as 20 mM phosphate, 100 mM NaCl, pH 7.0); conditions: protein: recombinant; chain copies: 3; 5' overhang 1 nt on each strand (11 bp paired)
ARID4B TD121 [2] = target: T2, ARID4B TD121; assay: NMR titration; n fixed 3; 50 mM Tris-HCl pH 7.6, 50 mM NaCl (buffer A); ITC 25 C; EMSA 4 C, 12 uM DNA, 8% native gel in TBE; NMR titration by 1H-15N HSQC (temperature not stated for titration; buffer A also defined elsewhere as 20 mM phosphate, 100 mM NaCl, pH 7.0); conditions: protein: recombinant; 5' overhang 1 nt on each strand (11 bp paired)
ARID4A TD151 = target: T3, ARID4A TD151; assay: NMR titration; n = 3; 50 mM Tris-HCl pH 7.6, 50 mM NaCl (buffer A); ITC 25 C; EMSA 4 C, 12 uM DNA, 8% native gel in TBE; NMR titration by 1H-15N HSQC (temperature not stated for titration; buffer A also defined elsewhere as 20 mM phosphate, 100 mM NaCl, pH 7.0); conditions: protein: recombinant; 5' overhang 1 nt on each strand (17 bp paired)
ARID4B TD151 [3] = target: T1, ARID4B TD151; assay: NMR titration; n fixed 3; 50 mM Tris-HCl pH 7.6, 50 mM NaCl (buffer A); ITC 25 C; EMSA 4 C, 12 uM DNA, 8% native gel in TBE; NMR titration by 1H-15N HSQC (temperature not stated for titration; buffer A also defined elsewhere as 20 mM phosphate, 100 mM NaCl, pH 7.0); conditions: protein: recombinant; chain copies: 3; 5' overhang 1 nt on each strand (17 bp paired)
ARID4B TD121 [4] = target: T2, ARID4B TD121; assay: NMR titration; n fixed 5; text says ~110; 50 mM Tris-HCl pH 7.6, 50 mM NaCl (buffer A); ITC 25 C; EMSA 4 C, 12 uM DNA, 8% native gel in TBE; NMR titration by 1H-15N HSQC (temperature not stated for titration; buffer A also defined elsewhere as 20 mM phosphate, 100 mM NaCl, pH 7.0); conditions: protein: recombinant; 5' overhang 1 nt on each strand (17 bp paired)
ARID4B TD151 [5] = target: T1, ARID4B TD151; assay: ITC; 50 mM Tris-HCl pH 7.6, 50 mM NaCl (buffer A); ITC 25 C; EMSA 4 C, 12 uM DNA, 8% native gel in TBE; NMR titration by 1H-15N HSQC (temperature not stated for titration; buffer A also defined elsewhere as 20 mM phosphate, 100 mM NaCl, pH 7.0); conditions: protein: recombinant; chain copies: 3; 5' overhang 1 nt on each strand (17 bp paired)

| Binder | Kd (ARID4B TD151 [1]) [µM] | Kd (ARID4B TD121 [2]) [µM] | Kd (ARID4A TD151) [µM] | Kd (ARID4B TD151 [3]) [µM] | Kd (ARID4B TD121 [4]) [µM] | Kd (ARID4B TD151 [5]) [µM] |
| --- | --- | --- | --- | --- | --- | --- |
| B1 | 79 ± 3 | 237 ± 7 |  |  |  |  |
| B2 |  |  | 9.7 ± 0.9 | 22 | 111 ± 2 | 27 ± 8 |

From PMC8038949, “Structural basis for the DNA-binding activity of human ARID4B Tudor domain”
